From the nanobody polyreactivity screen of Harvey et al. (2022)

Assay: yeast display, Sf9 membrane polyspecificity reagent, FACS + sequencing; frameworks hold sequencing errors
Method in brief: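 Using colony PCR, genes from sorted yeast display clones were amplified, then sequenced on MiSeq at 2 × 250 and filtered by CDR length. The clones had been stained with 10% biotinylated, detergent-solubilized Sf9 membrane reagent for 1 hour at 4 °C and sorted by FACS into low and high (top ~1%) gates on anti-HA and streptavidin fluorescence. Polyreactivity labels come from the gate of origin.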

| Sequence | polyreactivity (PSR sort gate) |
| --- | --- |
| QVQLVESGGGIVQAGGSLRLSCAASGFTYSDYAMGWYRQAPGKERELVAGISSGGSTNYADSVKGRFTISRDNAKYTVYFQMNSLKQVDTAVYYCAAYLYATWSYFFTWLDFWGQGTKVTVSS | high polyreactivity |
| QVQLVESGGRLVQAGGSLRLSCAASGRTFGYNTMGWYRPAPGKEREVVARITWSGASTYYADSVKGRFTISRDNAKNTVYLQMNSLKPEDTAVYYCNTADTVSWRSPYDYWGQGTQVTVSS | high polyreactivity |
| QVHLVESGGGLVQAGGSLRLSCAASGRTFGLYDMGWYRQAPGKERELVAGITRRGGRTYYADSVKGRFTISRDNAKNTVYLQMNSLKPEDTAVYYCAAGTIYLRHAQSPFDYWGQGTQVTVSS | high polyreactivity |
| QVQLVESGGGLVQAGGSLRLSCAASGSIFYRNAMGWYRQAPGKEREFVAAITLRGGSTYYADSVKGRFTISRDKAKNTVYLQMNSLKPEDTAVYYCNAGVGLTYVHDGDYWGQGTQVTVSS | low polyreactivity |
| QVQLVESGGGLVQAGGSLRLSCAASGSIFTRNAMGWYRQAPGKERELVADISRRGVSTYYADSVKGRFTISRDNAKNTVYLQMNSLKPEDTAVYYCNKLSSYVVARRTTEYDYWGQGTQVTVSS | high polyreactivity |
| QVQLVESGGGLVQAGGSLRLSCAASGFTFVAYAMGWYRQAPGKERELVAAISKSGGSTYYADSVKGRFTISRDNAKNSVYLQMNRLKPEDTAVYYCAARYYAYRSDYWGQGTQVTVSS | high polyreactivity |
| QVQLVESGGGLVQAGGSLRLSCAASGFTFEKYAMGWYRQAPGKERELVAAISQSAGSTYADSVKGRFTISRDNAKNTVYLQMNSLKPEDTAVYYFAARYRYPYYARYGYWGQGTQVTVSS | high polyreactivity |
| QVQLVESGGGLVQAGGSLRLSCAASGRTFRYYAMGWYRQAPGKEREFVAAITKRGGSTYYADSVKGRFTISRDNAKNTVYLQMNSLKAEDTAVYYCAADTSTWAHTRGYDYWGQGTQVTVSS | high polyreactivity |
| QVQLVESGRGLDQAGGSLRLSCAASGSTFESYVMGWYRQAPGKERELVADITKSGGNTYYADSVKGRFTISRDNWMITVYLLMNSLKPEDTAVYYCAVERGRRGMDYWGQGTQVTVSS | low polyreactivity |
| QVQLVESGGGLVQAGGSLRLSCAASGSTFPQYAMGWDRQAPGKERELVAVITDSGGSTYYADSVKGRFTISRDNAKNTVYLQKNSLKPEDTAVYYCAARRWSPRSGLGYGYWGQGTQVTVSS | high polyreactivity |
| QVQLVESGGGLVQAGGSLRLSCAASGRTLTKYVMGWYRQAPGKEREFVAAISSSGDSTYYADSVKGRFTISRDNAKNPVYLQMNSLKQEDTAVYYCAKYDRNTYCYWGQCTQVTVSS | low polyreactivity |
| QVQLVESGGGLVQAGGSLGLSCAASGRTFDDYSMGWYRQAPGKEMEFVAGITDNGGGTNYADSVKGRFTISRDNAMNTVYLQMNSLKPEDTAVYYCNAASDDFFPGRSTYGRDYWGQGTQVTVSS | low polyreactivity |
| QVQLVESGGGLVQAGGSLRLSCAASGLTFSRNAMGWYRQAPGKERELFATINSGGRTNYADSVKGRFTISRDNAKNTVYLQMNSQKPEDTAVYYCAVRTYSNYRAIVPYCRYDYWGQGTQVTVSS | high polyreactivity |
| QVQLVESGGGLVQAGGSLRLSCAASGFTFDFYAMGWYRQAPGKDRELVAAISRSGGRTYYADSVKGRFTISRDNAKNTVYLQMNSLKPEDTAVYYCAAVDIIPVRMEYWGQGTQVTVSS | high polyreactivity |
| QVQLVESGGGLVQAGGSLRLSCAASGGTFVRYAMGWYRQAPGKERELVAAISRSGGSTYYADSVKGRFTISRDNAKNTVYLQMNSLKPEDTAVFYCNKDRQRYGEDYWGQGTQVTVSS | high polyreactivity |
| QVKLVESGRGLVQAGGSLRISCDASGSIFYYYAMGWYRQAPGKERELVAAINGGDTNYADSVKGRFTISRDNAKNTVYLQMTSLKPEDTAVYYCAAEGVTVEWDYDYWGQATQVTVSS | low polyreactivity |
| QVQLVESGGGLVQAGGSLRLICAASGSTFAFYAMGWYRQAPGKERELVAAISRSGGRTYYADSVKGRFTISRDNAKNTVYLQMNSLKPEDTAVYYCAAPSRITTGPHREYDYWGQGTQVTVSS | high polyreactivity |
| QVQLVESGGGLVQAGGSLRLSCAASGSIFGNYAMGWYRQAPGKERELVAAITSSGGTYYADSVKGRFTISRDNAKNTVYLQMNSLKPEDTAVYYCAARYYSYRHQSVKYGYWGQGTQVTVSS | high polyreactivity |
| QVQLVESGGGLVQAGGSLRLSCAASGFIFYRYAMVWYRQAPGKEREFVARISANGGRTYYADSVKGRFTISRDNAKNTVYLQMNSLKPEDTAVYYCNAGRYATPYNYWGQGTQVTVSS | high polyreactivity |
| QVQLVESGGGLVQAGGSLRLSCAASALIFKTYTMGWYRQAPGKEREFVAAITTSGGSTYYADSVKGRFTISRDNAKNTVYLQMNSLKPEDTAVYYCAAVWWKSFQGSSYRMNYWGQGTQVTVSS | high polyreactivity |
| QVQRVESAGRLVQAGGSLRLSCAPSGYTFYGYAMGWYRQAPGKESELVAAISGSGGSTYYADSVKGRFTMSRDNAKNTVYLQMNSLIPEDTAVYYCNKARYAIYRGDGYDYWGQGTEVTVSS | high polyreactivity |
| QVQLVESGGGLVQAGGSLRLSCAASGYTFPTNAMGWYRQAPGKERELVAAISIDDGITYYADSVKGRFTISRDNAKNTVYLQMNSLKPEDTAVYYCSAEVGIEYEYWGQGTQVTVSS | high polyreactivity |

| Sequence | polyreactivity (PSR sort gate) |
| --- | --- |
| HVQLVESGGGLVQAGGSLRLSCAASGSTFIGYDMGWYTQAPGKERELVAAISYYDGTYYADSVNGSFTISRDNAKNTVYLQMNTLKPEDTAVYFCGVYRYDYWGQGTQVTVSS | low polyreactivity |
| QVQLVESGGGLVQAGGSLRLICAASGSIFGSNAMGWYRQAPGKEREFVAVITWRVGDTYYADSVKGRFTISRDNAKNTVYLQMKSLKPEDTAVYYCNVDWKVYGAPDYRIAWKYDYWGQGTQVTVSS | low polyreactivity |
| QVHLVESGGGLVQAGGSLRLSCADSGRTFGTYAMGWYRQAPGKERELVAAISSGGSTYADSVKGRFTISRDNAKNTVYLQMNSLKPVDTAVYYCNADFSARNYHYYPRRFKYYYWGQGTQVTVSS | high polyreactivity |
| QVQLVESGGGLVQAGGSLRLSCADSGRIFWANAMGWYRQAPGKERELVAAITWRGTSTYYADSVKGRFTISRDNAKNTVYLQMNSLKPEDTAVYYCAKVPYLKYGYDYWGQGTQVTVSS | high polyreactivity |
| QVQLVESGGGLVQAGGSLRLSCAASGSTFSVYGMGWYRQAPGKERELVAINIIGGSTYYADSVKGRFTISRDNAKNTVYLQMNSLKPEDTAVYYCAADSFPSEFDYWGQGTQVTVSS | low polyreactivity |
| QVQLVESGGGFVQAGGSLRLSCAASGGIFDVYAMGWYRQAPGKERELVAAISENGGSTYYADSVKGRFTISRDNAKNTVYLQMNSLKPEDTAVYYCAADDVSLSVFSYWAWYDYWGQGSQVTVSS | low polyreactivity |
| QVQLVESGGGLVQAGGSLRLSCAASGSIFQYNAMGWYRQAPGKERELVADITSAGRTYYADSVKGRFTISRDNAKNTVYLQMNSLKPEDTAVYYCNKDYHYHFSWYGYWGQGTQVTVSS | low polyreactivity |
| QVQLVESGGGLVQAGGSLRLSCAASGITFEYYAMGWYRQAPGKERELVAAITWSGGITYYADSVKGRFTISRDNAKNTVYLQMNSLKPEDTAVYYCNVYVSAGEEDEYWGQGTQVTVSS | low polyreactivity |
| QVQLVESGGGLVQAGGSLRLSCAASGSTFFTNAMGWYRQAPAKERELVAVITKRGGSTYYADSVKGRFTISRDKAKNTVYLQMNSLKPEDTAVYYCAARIPKQQGYGYWGHGTQVTVSS | high polyreactivity |
| QVQLVESGGGLVQAGGSLRLSCAASGTTFGGNSMGWYRQAPGKERELVAAIDSGGSTYADSVKGRFTISRDNAKNTVYLQMNSLKPEDTAVYYCAAVWEFVHYWRFDYWGQGSQVTVSS | low polyreactivity |
| QVQLVESGGGLVQAGGSLRLSCAASGFIFGYYAMGWYRQAPGKERELVAAITRSGGSTRYADSVKGRFTLSRDNAKNTVYLQMNSLKPEDTAVYYCTAYAPRQLYGYDYWGQGTQVTVSS | high polyreactivity |
| QVQLVESGGGLVQAGGSLRLSCAASGSIIGRYTMGWYRQAPGKERELVAAISRSGGSTYYADSVKGRFTISRDNSHNTVYLQMNSPKPEDTAVYYCAKRTYTPRVERLYSSYDYWGQGTQVTVSS | high polyreactivity |
| QVQLVESGGALVQAGGSLRLSCAASGGTFFSNAMGWYRQAPGKERELVAAISNDDGDTYYADSVKGRFTISRDNAKNTVYLQMNSLKPEDTAVYYCAVDYSYLHRTTFEYWGQGTQVTVSS | low polyreactivity |
| QVQLVESGGGLVQAGGSLRLSCAASGFTFWRNAMGWYRQAPGKERELVAAISWRGGSTYYADSVKGRFTISRDNAKNTVYLQMNSLKPEDTAVYYCNALHWQSKELDYYWGQGTQVTVSS | high polyreactivity |
| QVQLVESGGGLVQAGGSLRLSCAASGSIFGYYAMGWYRQAPGKEREFVAAISSRKDSTYADSVKGRFTISRDNAKNTVYLQMNSLKPEDTAVYYCAASTFRLTYAGHSYDYWGQGTQVTVSS | high polyreactivity |
| QVQLVESGGGLVQAGGSLRLSCAASGRTIGVYALGWSRQAPGKERELVAALTTSGDSTYYADSVKGRFTISRDNAKNTDYLQMNSLKPEDTAVYYCAARSYRKPRHVSVTYYYWGQGTQVTVSS | low polyreactivity |
| QVQLVESGGGLGQAGGSLRLSCAASGSIFDINAMGWYRQAPGKERELVAANRENGGDTYYPDSVKGRFTISRDNAKHTVYLQMNSLKPEDTAVYYCAAYSGDQAYQGDYWGQGTQVTVSS | low polyreactivity |
| QVQLVESGGGLVQAGGSLRLSCAASGFTFRKYTMGWYRQAPGKERELVAAISSGFSTNYADSVKGRFTISRDNAKNSVYLQMNSLKPEDTAVYYCAARGGYYQGRYKYGYWGQGTQVTVSS | high polyreactivity |
| QVQLVESGGGLVQAGGSLRLSCAASGRIFYPYAMGWYRQAPGKERELVAAIDWTAGGTYYADSVKGRFTISRDNAKNTVYLQMNSLKPEDTAVYYCAAEYYIEANGDYWGQGTQVTVSS | low polyreactivity |
| QVQLVESGGGLVQAGGSLRLSCAASGLIFSQNAMGWYRQAPGKERELVARITWSGTSTYYADSVKGRFTISRDNAKNTVYLQMNSLKPEDTAVYYCAADRPRGRETVDYWGQGTQVTVSS | high polyreactivity |
| QVQLVESGGGLVQAGGSLRLSCAASGFIFGIYAMGWYRQAPGKERELVAAISYRGGRTYYADSVKGRFTISRDNAKNTVYLQMNSLKPEDTAVYYCNTRGYRPGYNYWGQCTQVTVSS | high polyreactivity |
